According to US20210054076A1 (Chugai, published 2021):

What was measured:
mouse CLDN4 = biological target: T1, mouse CLDN4 (mouse, UniProt O35054 1-210); experiment: FACS on Ba/F3 transfectant, antibody 20 micro g/ml, FITC anti-human IgG
T1 construct: whole, on cells; also called mCLDN4; BaF3_mCLDN4
T1 sequence (looked up): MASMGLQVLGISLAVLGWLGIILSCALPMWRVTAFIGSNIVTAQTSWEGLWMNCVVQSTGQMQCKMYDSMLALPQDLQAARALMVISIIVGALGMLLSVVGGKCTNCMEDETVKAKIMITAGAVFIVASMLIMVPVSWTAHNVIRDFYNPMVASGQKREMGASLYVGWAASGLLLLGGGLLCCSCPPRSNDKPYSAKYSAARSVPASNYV
Experimental: (§1) To evaluate the binding activity and specificity of the generated CLDN6-TRABs against CLDN6 and other Claudin family antigens, FACS analysis was conducted as follows. Ba/F3 transfectants stably express a kind of protein selected from human CLDN3 (hCLDN3), human CLDN4 (hCLDN4), human CLDN6 (hCLDN6), human CLDN9 (hCLDN9), mouse CLDN3 (mCLDN3), mouse CLDN4 (mCLDN4) and mouse CLDN6 (mCLDN6), were generated using similar method described in WO2008/087978, and named BaF3_hCLDN3, BaF3_hCLDN4, BaF3_hCLDN6, BaF3_hCLDN9, BaF3 mCLDN3, BaF3 mCLDN4, BaF3 mCLDN6, respectively. Each of the CLDN6-TRABs (CH01/CD3, CH02/CD3, CH03/CD3, CH04/CD3) was incubated with the Ba/F3 transfectants at an antibody concentration of 20 micro g/ml in FACS buffer (0.5% BSA containing autoMACS Rinsing Solution, Miltenyl Biotec). Binding activities of each CLDN6-TRAB to the Claudin family proteins (hCLDN3, hCLDN4, hCLDN6, hCLDN9, mCLDN3, mCLDN4, mCLDN6) were examined by incubation of FITC-conjugated goat anti human IgG (BeckmanCoulter), represented as Geo-mean value. Sample processing was conducted on FACSVerse (BD).
(§2) Claudin family proteins have two extracellular domains. The sequence of the first extracellular domain in human CLDN9 is almost the same compared with the first extracellular domain of human CLDN6. For the second extracellular domain of human CLDN9, there are only two amino acids different from the ones at their corresponding positions in human CLDN6 (FIG. 2). The glutamine at position 156 of human Claudin 6 (position 156 in the sequence shown in SEQ ID NO: 44 or 45) was substituted to leucine to make a human CLDN6 mutant comprising the same amino acid as human Claudin 9 at position 156. This human CLDN6 mutant was named as hCLDN6(Q156L) (SEQ ID NO: 53). Ba/F3 transfectant stably express hCLDN6(Q156L) was generated using similar method described in WO2008/087978. The established Ba/F3 transfectant was named BaF3_hCLDN6(Q156L). Binding activity of the generated CLDN6-TRABs against BaF3_hCLDN6(Q156L) was measured using the above mentioned FACS method and the results are shown in FIG. 1 and Table 3.

mouse CLDN3 = biological target: T2, mouse CLDN3 (mouse, UniProt Q9Z0G9 1-219); experiment: as above
T2 construct: whole, on cells; also called mCLDN3; BaF3_mCLDN3
T2 sequence (looked up): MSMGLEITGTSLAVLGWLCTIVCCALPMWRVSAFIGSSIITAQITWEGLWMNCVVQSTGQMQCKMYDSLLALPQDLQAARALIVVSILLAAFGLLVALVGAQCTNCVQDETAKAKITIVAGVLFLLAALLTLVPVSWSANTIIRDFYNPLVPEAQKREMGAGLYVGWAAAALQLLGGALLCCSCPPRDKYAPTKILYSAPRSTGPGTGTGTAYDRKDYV
Experimental: as §1, §2

human CLDN6 [1] = biological target: T3, human CLDN6 (human, UniProt P56747 1-220); experiment: as above
T3 construct: 45 is entered here, 44 is equally possible; also called hCLDN6; human Claudin 6
T3 sequence: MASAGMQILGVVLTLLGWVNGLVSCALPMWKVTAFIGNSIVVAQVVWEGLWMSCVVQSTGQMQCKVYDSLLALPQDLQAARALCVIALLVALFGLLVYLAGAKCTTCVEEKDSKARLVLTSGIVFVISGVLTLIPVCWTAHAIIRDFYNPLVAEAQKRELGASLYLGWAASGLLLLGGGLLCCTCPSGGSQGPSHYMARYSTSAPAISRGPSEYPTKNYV
Experimental: as §1, §2

human CLDN9 = biological target: T4, human CLDN9 (human, UniProt O95484 1-217); experiment: as above
T4 construct: whole, on cells; also called hCLDN9; BaF3_hCLDN9
T4 sequence (looked up): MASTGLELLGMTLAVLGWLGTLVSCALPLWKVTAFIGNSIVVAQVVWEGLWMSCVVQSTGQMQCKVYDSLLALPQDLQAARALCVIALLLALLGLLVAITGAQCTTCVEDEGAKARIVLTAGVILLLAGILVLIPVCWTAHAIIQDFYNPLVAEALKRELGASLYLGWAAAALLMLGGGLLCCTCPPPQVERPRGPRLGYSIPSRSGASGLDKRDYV
Experimental: as §1, §2

hCLDN6(Q156L) = biological target: T5, hCLDN6(Q156L) (human, UniProt P56747 1-220); experiment: as above
T5 construct: Stably expressed on Ba/F3 cells; also called human CLDN6 mutant; BaF3_hCLDN6(Q156L)
T5 chain: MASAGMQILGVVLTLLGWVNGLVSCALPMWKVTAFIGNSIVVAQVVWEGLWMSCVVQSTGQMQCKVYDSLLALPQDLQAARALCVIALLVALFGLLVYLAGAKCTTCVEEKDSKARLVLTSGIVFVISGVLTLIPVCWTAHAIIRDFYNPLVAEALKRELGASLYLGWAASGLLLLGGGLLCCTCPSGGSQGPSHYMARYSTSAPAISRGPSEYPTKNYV
Experimental: as §1, §2

human CLDN4 = biological target: T6, human CLDN4 (human, UniProt O14493 1-209); experiment: as above
T6 construct: whole, on cells; also called hCLDN4; BaF3_hCLDN4
T6 sequence (looked up): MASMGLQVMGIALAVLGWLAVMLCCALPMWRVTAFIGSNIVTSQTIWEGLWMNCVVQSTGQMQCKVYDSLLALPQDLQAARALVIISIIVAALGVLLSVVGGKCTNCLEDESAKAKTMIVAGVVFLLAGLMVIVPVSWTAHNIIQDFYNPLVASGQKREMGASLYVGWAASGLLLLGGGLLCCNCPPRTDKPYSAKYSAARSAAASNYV
Experimental: as §1, §2

mouse CLDN6 = biological target: T7, mouse CLDN6 (mouse, UniProt Q9Z262 1-219); experiment: as above
T7 construct: whole, on cells; also called mCLDN6; BaF3_mCLDN6
T7 sequence (looked up): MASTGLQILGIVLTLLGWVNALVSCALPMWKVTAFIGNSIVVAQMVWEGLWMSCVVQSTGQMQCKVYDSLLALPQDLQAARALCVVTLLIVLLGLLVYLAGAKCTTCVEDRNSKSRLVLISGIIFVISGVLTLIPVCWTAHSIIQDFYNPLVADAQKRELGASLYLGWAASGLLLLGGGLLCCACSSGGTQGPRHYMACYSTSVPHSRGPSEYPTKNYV
Experimental: as §1, §2

human CLDN3 = biological target: T8, human CLDN3 (human, UniProt O15551 1-220); experiment: as above
T8 construct: whole, on cells; also called hCLDN3; BaF3_hCLDN3
T8 sequence (looked up): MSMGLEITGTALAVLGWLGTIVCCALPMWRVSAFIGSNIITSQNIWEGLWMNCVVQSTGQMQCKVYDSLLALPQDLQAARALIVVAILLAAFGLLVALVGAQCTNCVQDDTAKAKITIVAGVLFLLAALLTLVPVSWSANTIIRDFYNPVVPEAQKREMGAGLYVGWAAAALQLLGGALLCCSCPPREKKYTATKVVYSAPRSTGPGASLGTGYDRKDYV
Experimental: as §1, §2

human CLDN6 [2] = biological target: T3, human CLDN6; experiment: cell-based or functional assay
human CLDN6 [3] = biological target: T3, human CLDN6; experiment: cell-based or functional assay; remark: listed apart in the source

B1: CH03/CD3 (bispecific antibody, human IgG1, kappa, N297A)
heavy 1: EVQVEQSGPELVKPGASVKISCKTSGYTFTEYTMHWVKQSHGKSLEWIGGINPNNGNTRYNQKFKGKATLTVDKSSSTAYMELRTLTSEDSAVYYCARCGDFDLFFFFAYWGQGTLVTVSAASTKGPSVFPLAPSSKSTSGGTAALGCLVKDYFPEPVTVSWNSGALTSGVHTFPAVLQSSGLYSLSSVVTVPSSSLGTQTYICNVNHKPSNTKVDKKVEPKSCDKTHTCPPCPAPELRGGPKVFLFPPKPKDTLMISRTPEVTCVVVDVSHEDPEVKFNWYVDGVEVHNAKTKPREEQYASTYRVVSVLTVLHQDWLNGKEYKCKVSNKALPAPIEKTISKAKGQPREPQVYTLPPSREEMTKNQVSLTCLVKGFYPSDIAVEWESNGQPENNYKTTPPYLDSDGSFFLYSKLTVDKSRWQQGNVFSCSVMHEALHNHYTQESLSLSP
light 1: DIVMTQSQKFMSTSVGDRVSVTCKASQNVGSNVAWYQQKPGQSPEGLISSASSRFSGVPDRFTGSGSGTDFTLTITNVQSEDLAEYFCQQYNSYPFTFGSGTELEIKRTVAAPSVFIFPPSDEQLKSGTASVVCLLNNFYPREAKVQWKVDNALQSGNSQESVTEQDSKDSTYSLSSTLTLSKADYEKHKVYACEVTHQGLSSPVTKSFNRGEC
heavy 2: QVQLVESGGGVVQPGGSLRLSCAASGFTFSNAWMHWVRQAPGKGLEWVAQIKDKSQNYATYVAESVKGRFTISRADSKNSIYLQMNSLKTEDTAVYYCRYVHYAAGYGVDIWGQGTTVTVSSASTKGPSVFPLAPSSKSTSGGTAALGCLVKDYFPEPVTVSWNSGALTSGVHTFPAVLQSSGLYSLSSVVTVPSSSLGTQTYICNVNHKPSNTKVDKKVEPKSCDKTHTCPPCPAPELRGGPKVFLFPPKPKDTLMISRTPEVTCVVVDVSHEDPEVKFNWYVDGVEVHNAKTKPREEQYASTYRVVSVLTVLHQDWLNGKEYKCKVSNKALPAPIEKTISKAKGQPREPQVYTLPPSRKEMTKNQVSLTCLVKGFYPSDIAVEWESNGQPENNYKTTPPYLDSDGSFFLYSKLTVDKSRWQQGNVFSCSVMHEALHNHYTQKSLSLSP
light 2: DIVMTQSPLSLPVTPGEPASISCRSSQPLVHSNRNTYLHWYQQKPGQAPRLLIYKVSNRFSGVPDRFSGSGSGTDFTLKISRVEAEDVGVYYCGQGTQVPYTFGQGTKLEIKRTVAAPSVFIFPPSDEQLKSGTASVVCLLNNFYPREAKVQWKVDNALQSGNSQESVTEQDSKDSTYSLSSTLTLSKADYEKHKVYACEVTHQGLSSPVTKSFNRGEC
notes: Made by Fab arm exchange of the bivalent anti-CLDN6 antibody CH03 with the bivalent anti-CD3 antibody CD3-1; human IgG1 constant region; One anti-CLDN6 arm and one anti-CD3 arm; also called CLDN6-TRAB; CLDN6-targeted T-cell redirecting bispecific antibody
- Geo-mean value of FACS (mouse CLDN4): 22
- Geo-mean value of FACS (mouse CLDN3): 26
- Geo-mean value of FACS (human CLDN6 [1]): 7700
- Geo-mean value of FACS (human CLDN9): 184
- Geo-mean value of FACS (hCLDN6(Q156L)): 98
- Geo-mean value of FACS (human CLDN4): 35
- Geo-mean value of FACS (mouse CLDN6): 559
- Geo-mean value of FACS (human CLDN3): 37
- EC50 (read off the curve), Jurkat/NFAT-RE luciferase reporter, target cells PA-1 (human CLDN6 [2]): ~0.02 nM
- EC50 (read off the curve), Jurkat/NFAT-RE luciferase reporter, target cells ABC-1 (human CLDN6 [3]): ~0.04 nM
